The source of these data is publication doi:10.1101/2020.11.17.386581 (bioRxiv, 2020).

This test addresses recombinant human tau 2N4R (as used in SPR) (human, UniProt P10636-8 1-441). As to the kind of experiment: SPR.

B1: Recombinant human SORL1 aa 82-753 protein (domain or fragment, UniProt Q92673 82-753, looked up)
chain: SAALQPEPIKVYGQVSLNDSHNQMVVHWAGEKSNVIVALARDSLALARPKSSDVYVSYDYGKSFKKISDKLNFGLGNRSEAVIAQFYHSPADNKRYIFADAYAQYLWITFDFCNTLQGFSIPFRAADLLLHSKASNLLLGFDRSHPNKQLWKSDDFGQTWIMIQEHVKSFSWGIDPYDKPNTIYIERHEPSGYSTVFRSTDFFQSRENQEVILEEVRDFQLRDKYMFATKVVHLLGSEQQSSVQLWVSFGRKPMRAAQFVTRHPINEYYIADASEDQVFVCVSHSNNRTNLYISEAEGLKFSLSLENVLYYSPGGAGSDTLVRYFANEPFADFHRVEGLQGVYIATLINGSMNEENMRSVITFDKGGTWEFLQAPAFTGYGEKINCELSQGCSLHLAQRLSQLLNLQLRRMPILSKESAPGLIIATGSVGKNLASKTNVYISSSAGARWREALPGPHYYTWGDHGGIITAIAQGMETNELKYSTNEGETWKTFIFSEKPVFVYGLLTEPGEKSTVFTIFGSNKENVHSWLILQVNATDALGVPCTENDYKLWSPSDERGNECLLGHKTVFKRRTPHATCFNGEDFDRPVVVSNCSCTREDYECDFGFKMSEDLSLEVCVPDPEFSGKSYSPPVPCPVGSTYRRTRGYRKISGDTCSGGDVEARLEGELVPCP
In the case of B1, the Kd is 41 ± 9 nM.
